Patent publication US20250270306A1 (OSPEDALE SAN RAFFAELE S R L, published 2025)
Residue numbers refer to the chain shown, from its start.

B1: YU139-D02 (Fc fusion)
VH: EVQLVESGGGVVQPGRSLRLSCAASGFTFSSYGMHWVRQAPGKGLEWVAVISYDGSNKYYADSVKGRFTISRDNSKNTLYLQMNSLRAEDTAVYYCAKDNGDYGYYYYYYMDVWGKGTTVTVSS
VL: DIQMTQSPSTLSASVGDRVTITCRASQSISRWLAWYQQKPGKAPKLLIYDASSLESGVPSRFSGSGSGTEFTLTISSLQPDDFATYYCQQSYSTPLTFGPGTKVDIK
B2: YU139-C01 (Fc fusion)
VH: QVQLVQSGAEVKKPGASVKVSCKASGYTFTSYGISWVRQAPGQGLEWMGWINTYNGNTNYAQKLQGRVTMTTDTSTTTAYMELRSLRSDDTAVYYCARDIGYSGSYYSPYYYYGMDVWGQGTTVTVSS
VL: SSELTQDPAVSVALGQTVRITCQGDGLRNYFASWYQQKPGQAPVLVIYGKNNRPSGIPDRFSGSSSGNTASLRIAGAQAEDEADYYCNSRDGSGKHLVFGGGTKLTV
notes: The format used in the Octet assay is not restated (captured via Fc); also called Yu139-CO1
B3: YU139-B01 (Fc fusion)
VH: QVQLQESGPGLVKPSGTLSLTCAVSGGSISSSNWWSWVRQPPGKGLEWIGEVYHSGSTNYNPSLKSRVTISVDKSKNQFSLKLSSVTAADTAVYYCARNIPLSSSWPNYYYYYGMDVWGQGTTVTVSS
VL: B2 VL with G26S, F31Y, R73T, A75N, G92S, G94A, L97W
B4: YU139-H03 (Fc fusion)
VH: QVQLVQSGAEVKKPGASVKVSCKASGYTFTSYGISWVRQAPGQGLEWMGWISAYNGNTNYAQKLQGRVTMTTDTSTSTAYMELRSLRSDDTAVYYCARVKWELGWAFDIWGQGTMVTVSS
VL: QAVLTQPPSVSGAPGQRVTISCTGSSSNIGAGYDVHWYQQLPGTAPKLLIYGNSNRPSGVPDRFSGSKSGTSAPLAITGLQAEDEADYYCQSYDSSLSTVFGGGTKLTVL
notes: The format used in the Octet assay is not restated (captured via Fc)
B5: YU139-D03 (Fc fusion)
VH: QVQLVQSGAEVKKPGASVKVSCKASGYTFSDYGISWVRQAPGQGLEWMGWISGDNVKTTYAKKFQGRVTLTTDTSTSTAYMELRSLTSDDTAAYYCARGGIVFDYWGQGTLVTVSS
VL: ETTLTQSPGTLSLSPGERATLSCRASQSVSGNYLAWYQQKPGQPPRLLIFGASSRATGIPDRFSGSGSGTDFTLTISRLEPEDFGVYYCQQYGSSPGTFGQGTKVEIK
B6: YU139-G03 (Fc fusion)
VH: QVQLQQSGAEVKKPGSSVKVSCKASGGIFSTYVTSWVRQAPGQGLEWMGGIIPMFDTTEYAQKLEGRVTITVDESTNTAYMELSSLRFEDTAVYYCARAGGLSHFDYWGQGTLVTVSS
VL: EIVLTQSPLSLPVTPGEPASISCRSSQSLLHSNGNNYLNWYLQKPGQSPQLLIYLSSRRASGVPDRFSGSGSGTDFTLKISRVEAEDVGVYYCMQGLQTPWTFGQGTKVETK
B7: YU139-A02 (Fc fusion)
VH: QVQLVQSGAEVKKPGSSVKVSCKASGGTFSSYAISWVRQAPGQGLEWMGGIIPIFGTANYAQKFQGRVTITADESTSTAYMELSSLRSEDTAVYYCARDYYDSSGYYFDAFDIWGQGTMVTVSS
VL: QAGLTQPPSASGTPGQRVIISCSGSSSNIGTNTVSWYQHLPGTAPKLLIYNNNERPSGVPRRFSGSRSGASASLAISGLQSDDEAHYYCAAWDDNLTGLVFGGGTKLTVL
B8: YU139-G01 (Fc fusion)
VH: QMQLVQSGAEVKMPGASVKVSCKASGYTFTSYGISWVRQAPGQGLEWMGWISAYNGNTYYAQKLQGRVTMTADTSTSTAYMDLRSLRSDDTAVYYCARLSYYNYAMDVWGQGTTVTVSS
VL: QSALTQPPSASGSPGQSVTISCTGTSSDVGGYNHVSWYQQHPGKAPKLMIYEVSNRPSGVPNRFSGSKSGNTASLTISGLQAEDEADYYCSSYTSSNTWVFGGGTKLTVL
B9: YU139-A03 (Fc fusion)
VH: QVQLVQSGGGVVQPGRSLRLSCAASGFTFSSYGIHWVRQAPGKGLEWVAIVSYDGRHKYYADSVKGRFTISRDDSKNTIYLQMDSLRAEDTAVYYCAKDSGNSGLEGIHDYWGQGTLVTVSS
VL: DVVMTQSPSSVSASVGDRVTITCRASQGISSWLAWYQQKPGKAPKLLIYAASSLQSGVPSRFSGSGSGTDFTLTISSLQPEDFGTYYCQQANSFPLTFGGGTKVEIK
notes: as for B4
B10: ecto-TMEM219 (receptor)
chain: THRTGLRSPDIPQDWVSFLRSFGQLTLCPRNGTVTGKWRGSHVVGLLTTLNFGDGPDRNKTRTFQATVLGSQMGLKGSSAGQLVLITARVTTERTAGTCLYFSAVPGILPSSQPPISCSEEGAGNATLSPRMGEECVSVWSHEGLVLTKLLTSEELALCGSR
notes: it is put last here only for want of better knowledge; also called EctoTMEM-His; extracellular domain of TMEM219; not shown: His tag (detected with anti 6xHis tag HRP)

Assays:
Recombinant human IGFBP3 [1] = biological target: T1, Recombinant human IGFBP3 (human, UniProt P17936 28-291); assay: competitive ELISA: plate coated with rhIGFBP3 4 µg/ml; ecto-TMEM219 10 µg/ml added with the antibody (10 µg/ml per paragraph 174); detection anti-HisTag HRP; blocked ligand: ecto-TMEM219
T1 construct: also called rhIGFBP3; hIGFBP-3
T1 sequence (P17936 28-291 limits assumed): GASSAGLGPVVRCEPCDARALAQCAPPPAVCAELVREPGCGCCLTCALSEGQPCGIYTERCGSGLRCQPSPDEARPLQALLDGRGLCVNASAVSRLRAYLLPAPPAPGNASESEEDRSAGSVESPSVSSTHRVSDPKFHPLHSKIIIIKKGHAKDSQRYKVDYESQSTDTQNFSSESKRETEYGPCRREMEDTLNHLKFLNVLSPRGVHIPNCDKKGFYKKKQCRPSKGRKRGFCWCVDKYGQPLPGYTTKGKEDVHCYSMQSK
Experimental: FIG. 5. IGFBP3-Ecto-TMEM219 binding in the presence of newly generated anti-IGFBP3 mAbs (n=11, YU139 antibodies) or Ecto-TMEM219 alone or monoclonal anti-IGFBP3 commercially available (LSBIO LS-C45037/clone 83.8F9, mAnti-IGFBP3) tested by using a competitive ELISA screening assay. In this assay, the microtiter plate was coated with rhlGFBP3, and labeled ecto-TMEM219 added. Each candidate monoclonal antibody was added and its ability to displace ecto-TMEM219 was assessed by measuring Absorbance after the plate was washed. Boxed are anti-IGFBP3 antibodies able to achieve the highest reduction in Ecto-TMEM219 signal (1-way ANOVA, p<0.00001).
Microplate was coated with 50 μl/well of 4 μg/ml rhlGFBP3 dissolved in PBS or PBS alone (no coating). Plate was incubated 90 minutes at 37° C. and washed with PBS (300 μl/well) and incubated with the blocking reagent (200 μl/well) 2 hours at room temperature. Samples were then diluted in the diluent solution (50 μl/well) and added to the plate as follows: diluent solution (none), ecto-TMEM 10 μg/ml, ecto-TMEM 10 μg/ml+anti-IGFBP3 mAbs 10 μg/ml, anti-IGFBP3 mAbs 10 μg/ml alone. After washing steps, plate was then incubated at room temperature for 1 hour with anti 6×His tag HRP diluted 1:2000 in Diluent solution (50 μl/well). ELISA plate was then read after adding visualization solution at ELISAreader and adsorbance was measured.

Recombinant human IGFBP3 [2] = biological target: T1, Recombinant human IGFBP3; assay: cell-based or functional assay
Recombinant human IGFBP3 [3] = biological target: T1, Recombinant human IGFBP3; assay: BLI (Octet/BLItz), antibody captured via Fc on AHC biosensor, antigen in solution
Experimental: (§1) To assess the binding affinity in more detail, affinity measurements were performed using Biomolecular Interaction Analysis performed by an Octet instrument (BLItz System), which is a Biolayer Interferometry (BLI) platform. To establish the assay, the target monoclonal antibody (30 μg/ml in 1% BSA-PBST) was immobilized via Fc on the via AHC biosensor and the interaction with the antigen human IGFBP3 (R&D, cat n° 675 B3) and mouse IGFBP3 (Creative Biomart, cat n° igfbp3 829M) at different concentration was measured.

mouse IGFBP3 [4] = biological target: T2, mouse IGFBP3 (mouse, UniProt P47878 28-292, limits assumed); assay: as above
T2 construct: Bought protein; also called mIGFBP-3; murine IGFBP3
T2 sequence (P47878 28-292 limits assumed): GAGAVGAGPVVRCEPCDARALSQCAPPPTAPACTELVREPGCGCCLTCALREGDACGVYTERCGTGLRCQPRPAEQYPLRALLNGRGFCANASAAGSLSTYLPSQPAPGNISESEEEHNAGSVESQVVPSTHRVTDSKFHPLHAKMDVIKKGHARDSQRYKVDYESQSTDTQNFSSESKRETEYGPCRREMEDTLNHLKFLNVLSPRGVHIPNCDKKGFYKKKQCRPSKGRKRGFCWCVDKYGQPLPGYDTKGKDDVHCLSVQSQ
Experimental: as §1

Recombinant human IGFBP3 [5] = biological target: T1, Recombinant human IGFBP3; assay: ELISA: rhIGFBP3 2 µg/ml coated directly; scFv-Fc titrated 0.01-10 µg/ml; detection goat anti-human Fc-HRP, Abs 450 nm
Experimental: CVC microplates were coated with: i) 100 μl/well of 2 μg/ml rhIGFBP3 dissolved in PBS or PBS alone (no coating) and incubated 60 minutes at RT; ii) 100 μl/well of 2 μg/ml anti-IGFBP3 (LS-C45037 LSBio) and incubated o.n at 4° C. Plates were washed with H₂O-Tween20 (0.05%) and incubated with the blocking reagent (2% BSA-PBS-T (0.05%)). For condition ii) 100 μl/well of 2 μg/ml rhIGFBP3 was incubated o.n at 4° C. After washing the newly generated antibodies (in 2% BSA-PBS-T (0.05%)) were titrated onto the plate and incubated for 1 hour at RT. After washing steps, detection of bound antibodies was performed using a goat anti-human Fc-HRP antibody (Sigma A0170) in 2% BPS-PBS-T (0.05%) followed by washing and read out with TMB (100 μl/well). ELISA plates were then read measuring the absorbance at 450 nm.

Recombinant human IGFBP3 [6] = biological target: T1, Recombinant human IGFBP3; assay: BLI (Octet/BLItz)
mouse IGFBP3 [7] = biological target: T2, mouse IGFBP3; assay: BLI (Octet/BLItz)

Binder | binding result (Recombinant human IGFBP3 [1]) | expression of ISCs markers EphB2 and LGR5 (RT-PCR) in IGFBP3-treated mini-guts (Recombinant human IGFBP3 [2]) [%] | Kd (Recombinant human IGFBP3 [3]) [µM] | also measured
B1 | binds |  |  | 
B2 |  | ≥ 50 | 0.00169 | Kd (mouse IGFBP3 [4]): 0.342 µM
B3 | binds |  |  | 
B4 |  | ≥ 50 | 4 | 
B5 | binds |  |  | 
B6 |  | ≥ 50 |  | 
B7 |  |  |  | binding result (Recombinant human IGFBP3 [5]): binds
B8 |  |  |  | binding result (Recombinant human IGFBP3 [5]): binds
B9 |  | ≥ 50 | 0.328 | Kd (mouse IGFBP3 [4]): 0.735 µM
B10 |  |  |  | Kd (Recombinant human IGFBP3 [6]): 0.035 µM; Kd (mouse IGFBP3 [7]): 0.06 µM
